Data published in patent US20230357447A1 (JANUX THERAPEUTICS, published 2023).
Where two headings read alike, the source gives them in different places. Ends that are not written are not given here.

Columns and labels:
[1] = biological target: T1, Ab-12, anti-PD-L1xCD28 non-masked antibody in Vh format; experiment: competition ELISA: peptide titrated against 5 nM Ab-12; binding of Ab-12 to captured biotinylated CD28 antigen is read
T1 construct: also called PDL1xCD28 non-masked (Vh)

[2] = biological target: T1, Ab-12, anti-PD-L1xCD28 non-masked …; experiment: as above; remark: listed apart in the source
[3] = biological target: T2, anti-CD28 scFv (SEQ ID NO: 9); experiment: competition ELISA: peptide titrated against 2 nM anti-CD28 scFv; binding of the scFv to captured biotinylated CD28 antigen is read
T2 construct: also called Anti-CD28 scFv (VH-linker 1-VL)

[4] = biological target: T2, anti-CD28 scFv (SEQ ID NO: 9); experiment: as above; remark: listed apart in the source
[5] = biological target: T2, anti-CD28 scFv (SEQ ID NO: 9); experiment: as above; remark: listed apart in the source
[6] = biological target: T1, Ab-12, anti-PD-L1xCD28 non-masked …; experiment: competition ELISA: peptide titrated against 5 nM Ab-12; binding of Ab-12 to captured biotinylated CD28 antigen is read; remark: listed apart in the source
[7] = biological target: T2, anti-CD28 scFv (SEQ ID NO: 9); experiment: competition ELISA: peptide titrated against 2 nM anti-CD28 scFv; binding of the scFv to captured biotinylated CD28 antigen is read; remark: listed apart in the source
[8] = biological target: T1, Ab-12, anti-PD-L1xCD28 non-masked …; experiment: competition ELISA: peptide titrated against 5 nM Ab-12; binding of Ab-12 to captured biotinylated CD28 antigen is read; remark: listed apart in the source
[9] = biological target: T2, anti-CD28 scFv (SEQ ID NO: 9); experiment: competition ELISA: peptide titrated against 2 nM anti-CD28 scFv; binding of the scFv to captured biotinylated CD28 antigen is read; remark: listed apart in the source
[10] = biological target: T1, Ab-12, anti-PD-L1xCD28 non-masked …; experiment: competition ELISA: peptide titrated against 5 nM Ab-12; binding of Ab-12 to captured biotinylated CD28 antigen is read; table prints 'IC50 nM' but the axis is Log [Peptide, uM]
[11] = biological target: T1, Ab-12, anti-PD-L1xCD28 non-masked …; experiment: competition ELISA: peptide titrated against 5 nM Ab-12; binding of Ab-12 to captured biotinylated CD28 antigen is read; table prints 'IC50 nM' but the axis is Log [Peptide, uM] and the curve falls between Log 0.5 and Log 2
[12] = biological target: T3, Anti-CD28 scFv (VH-linker 1-VL) (biotinylated (site not stated)); experiment: phage ELISA, captured biotinylated scFv; background signal 0.063
T3 construct: biotinylated and captured on neutravidin coated plates in the phage ELISA

[13] = biological target: T3, Anti-CD28 scFv (VH-linker 1-VL); experiment: phage ELISA, scFv wells pre-incubated with soluble CD28 (competitor); background signal 0.063
[14] = biological target: T3, Anti-CD28 scFv (VH-linker 1-VL); experiment: phage ELISA, captured biotinylated scFv; background signal 0.068
[15] = biological target: T3, Anti-CD28 scFv (VH-linker 1-VL); experiment: phage ELISA, scFv wells pre-incubated with soluble CD28 (competitor); background signal 0.068
[16] = biological target: T3, Anti-CD28 scFv (VH-linker 1-VL); experiment: phage ELISA, captured biotinylated scFv; background signal 0.078
[17] = biological target: T3, Anti-CD28 scFv (VH-linker 1-VL); experiment: phage ELISA, scFv wells pre-incubated with soluble CD28 (competitor); background signal 0.078
[18] = biological target: T3, Anti-CD28 scFv (VH-linker 1-VL); experiment: phage ELISA, scFv wells pre-incubated with soluble CD28 (competitor); background signal 0.066
[19] = biological target: T3, Anti-CD28 scFv (VH-linker 1-VL); experiment: phage ELISA, captured biotinylated scFv; background signal 0.066
[20] = biological target: T3, Anti-CD28 scFv (VH-linker 1-VL); experiment: phage ELISA, scFv wells pre-incubated with soluble CD28 (competitor); background signal 0.061
[21] = biological target: T3, Anti-CD28 scFv (VH-linker 1-VL); experiment: phage ELISA, captured biotinylated scFv; background signal 0.072
[22] = biological target: T3, Anti-CD28 scFv (VH-linker 1-VL); experiment: phage ELISA, scFv wells pre-incubated with soluble CD28 (competitor); background signal 0.072
[23] = biological target: T3, Anti-CD28 scFv (VH-linker 1-VL); experiment: phage ELISA, captured biotinylated scFv; background signal 0.061

What does the source list for MDWCPRERWVDCFF [Peptide-51]?
IC50 [1]: 2620 nM; IC50 [2]: 2430 nM; IC50 [3]: 1650 nM; IC50 [4]: 1370 nM; IC50 [5]: 1630 nM; IC50 [6]: 2450 nM; IC50 (read off the curve) [7]: ~2 µM

How did the IC50 [1] turn out when MDWCPRERWVDCFF (cysteine pairing not given here; also: biotinylated, site not given here) [Peptide-9] was run?
Its IC50 is 2630 nM.

What about the IC50 [2] of the same binder?
Its IC50 is 1860 nM.

What about the “IC50 (read off the curve)” value [8] of the same binder?
Its value is roughly 2 µM.

And the IC50 [5]?
The IC50 was 1280 nM.

And the “IC50 (read off the curve)” value [9]?
Its value is roughly 2 µM.

And the IC50 [10]?
The IC50 was 1.54 nM.

What about the IC50 [6] of the same binder?
The IC50 was 2240 nM.

GYCHYWGDMVMWCG (cysteine pairing not given here; also: biotinylated, site not given here, also called Peptide-12_200 nM) [Peptide-12] was tested. Which IC50 [11] did it give?
Its IC50 is 21 nM.

How did the “Phage binding ELISA CD28 scFv signal” value [12] turn out when MDWCPPYLWNVCFS [Phage-50] was run?
The value was 1.64.

And the “Phage binding ELISA CD28 scFv signal in presence of CD28” value [13]?
Its value is 0.1.

With MNWCPRDMWYQCFN [Phage-54] as the binder, how does the “Phage binding ELISA CD28 scFv signal” value [14] read?
Its value is 1.95.

What about the “Phage binding ELISA CD28 scFv signal in presence of CD28” value [15] of the same binder?
Its value is 0.177.

What does the source list for MDWCPRDLWHECFA [Phage-26]?
Phage binding ELISA CD28 scFv signal [12]: 2.71; Phage binding ELISA CD28 scFv signal in presence of CD28 [13]: 0.277

For MDWCPRPLWHECFS [Phage-45], which “Phage binding ELISA CD28 scFv signal” value [16] is on record?
The value was 2.35.

And the “Phage binding ELISA CD28 scFv signal in presence of CD28” value [17]?
Its value is 0.121.

With MDWCPRALWAECFN [Phage-63] as the binder, how does the “Phage binding ELISA CD28 scFv signal” value [14] read?
The value was 2.68.

What about the “Phage binding ELISA CD28 scFv signal in presence of CD28” value [15] of the same binder?
Its value is 0.339.

With MDWCPRDLWHECFS [Phage-79] as the binder, how does the “Phage binding ELISA CD28 scFv signal in presence of CD28” value [18] read?
The value was 0.382.

And the “Phage binding ELISA CD28 scFv signal” value [19]?
The value was 2.65.

Which “Phage binding ELISA CD28 scFv signal in presence of CD28” value [18] does the source give for MDWCPRHLWAECFF [Phage-86] here?
The value was 0.292.

What about the “Phage binding ELISA CD28 scFv signal” value [19] of the same binder?
The value was 2.61.

With MDWCPIYLWDECFN [Phage-106] as the binder, how does the “Phage binding ELISA CD28 scFv signal in presence of CD28” value [20] read?
Its value is 0.215.

For MDWCPRDLWAECFN [Phage-107], which “Phage binding ELISA CD28 scFv signal in presence of CD28” value [20] is on record?
The value was 0.207.

For MDWCPRYLWFECFA [Phage-114], which “Phage binding ELISA CD28 scFv signal in presence of CD28” value [18] is on record?
Its value is 0.21.

And the “Phage binding ELISA CD28 scFv signal” value [19]?
The value was 2.5.

What does the source list for MDWCPMDLWYQCFN [Phage-85]?
Phage binding ELISA CD28 scFv signal [12]: 2.62; Phage binding ELISA CD28 scFv signal in presence of CD28 [13]: 0.187

How did the “Phage binding ELISA CD28 scFv signal” value [16] turn out when MDWCPIHLWHYCFN [Phage-88] was run?
Its value is 2.6.

What about the “Phage binding ELISA CD28 scFv signal in presence of CD28” value [17] of the same binder?
Its value is 0.453.

Which results are given for MDWCPKDLWDYCFA [Phage-97]?
Phage binding ELISA CD28 scFv signal [16]: 2.57; Phage binding ELISA CD28 scFv signal in presence of CD28 [17]: 0.165

Which results are given for MDWCPRDLWYACFA [Phage-116]?
Phage binding ELISA CD28 scFv signal [21]: 2.47; Phage binding ELISA CD28 scFv signal in presence of CD28 [22]: 0.242

Which “Phage binding ELISA CD28 scFv signal in presence of CD28” value [18] does the source give for MDWCPIDLWNECFF [Phage-19] here?
The value was 0.187.

What about the “Phage binding ELISA CD28 scFv signal” value [19] of the same binder?
Its value is 2.52.

MDWCPRDLWDLCFA [Phage-25] was tested. Which “Phage binding ELISA CD28 scFv signal” value [16] did it give?
Its value is 2.7.

What about the “Phage binding ELISA CD28 scFv signal in presence of CD28” value [17] of the same binder?
Its value is 0.219.

For MDWCPRDLWSECFF [Phage-28], which “Phage binding ELISA CD28 scFv signal” value [14] is on record?
The value was 2.57.

And the “Phage binding ELISA CD28 scFv signal in presence of CD28” value [15]?
The value was 0.218.

Which “Phage binding ELISA CD28 scFv signal” value [21] does the source give for MDWCPVHLWSVCFA [Phage-38] here?
Its value is 2.65.

What about the “Phage binding ELISA CD28 scFv signal in presence of CD28” value [22] of the same binder?
The value was 0.302.

How did the “Phage binding ELISA CD28 scFv signal” value [23] turn out when MDWCPIDMWDQCFN [Phage-40] was run?
Its value is 2.66.

And the “Phage binding ELISA CD28 scFv signal in presence of CD28” value [20]?
The value was 0.297.

Which “Phage binding ELISA CD28 scFv signal” value [23] does the source give for IDWCPRYLWDECYN [Phage-48] here?
Its value is 2.24.

And the “Phage binding ELISA CD28 scFv signal in presence of CD28” value [20]?
The value was 0.153.
